The target in the experiment is chimeric mouse h-ferritin-M6A (recombinant) (mouse | not stated). In words: SEC; HiLoad 26/60 Superdex 200; 20 mM Tris-HCl pH 8, 200 mM KCl, 10% glycerol, 2 mM TCEP; elution volume compared with horse spleen ferritin (~440 kDa). Background: SEC sorts molecules by how far they enter the pores of the column.

Usually stoichiometry N stands for the number of molecules, sites or subunits per partner or assembly. For the substance “chimeric mouse h-ferritin-M6A (recombinant)”, the stoichiometry N came to 24.
